The results in this text go back to US20190071501A1 (REYOUNG SUZHOU BIOLOGY SCIENCE AND TECHNOLOGY, published 2019).

For one experiment, the target named is T1, recombinant human CTLA-4 (human, UniProt P16410 36-161, limits assumed).
T1 construct: Plate-coated at 0.5 ug/mL in Embodiment 8
T1 sequence (looked up): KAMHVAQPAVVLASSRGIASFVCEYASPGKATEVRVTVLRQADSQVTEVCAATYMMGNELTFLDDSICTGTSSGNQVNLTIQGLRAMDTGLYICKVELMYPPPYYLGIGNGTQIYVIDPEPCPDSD
The experiment is described as follows: ELISA: protein coated at 0.5 ug/mL, antibody at 0.5 ug/mL, goat anti-human FAB-HRP, OD450. The protocol: (§1) The binding of recombinant human CD28, recombinant human CTLA-4, recombinant mouse PD-1, recombinant M.fascicularis PD-1 and recombinant human PD-1 protein in recombinant CD28 family to antibodies is tested. Different proteins are stored at 0.5 μg/mL in enveloping buffer at 4° C. overnight. Remove the solution in wells the next day and wash with PBST for twice. Then add 1% BSA, seal at 37° C. for 1 hour, then wash with PBST for twice. Add 0.5 μg/mL antibody samples, incubate for 1 hour, and wash with PBST for three times. Dilute with goat anti-human FAB-HRP at ratio of 1:10000, incubate for 1 hour at 37 C, and wash with PBST for three times. Add TMB for 15 min coloration, stop the reaction with 0.5M H2SO4 and read out the absorbance at 450 nm.
Background: ELISA stands for enzyme-linked immunosorbent assay.

The target of a further experiment is T2, mouse pd1 (mouse, UniProt Q02242).
T2 construct: recombinant protein coated on the ELISA plate; also called recombinant mouse PD-1
T2 sequence (receptor, looked up): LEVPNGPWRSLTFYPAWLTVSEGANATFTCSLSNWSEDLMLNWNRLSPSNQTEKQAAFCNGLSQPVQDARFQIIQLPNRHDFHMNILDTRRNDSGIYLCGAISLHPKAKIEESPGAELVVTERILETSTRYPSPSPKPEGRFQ
Described as above. The protocol:
as §1

For the next experiment, the target named is T3, recombinant human CD28 (human, UniProt P10747 19-152, limits assumed).
T3 construct: Plate-coated at 0.5 ug/mL in Embodiment 8
The description is as above. The protocol:
as §1

The target of experiment [1] is Recombinant human PD-1 fusion protein (human). The experiment is described as follows: ELISA: recombinant human PD-1 fusion protein coated at 0.5 ug/mL, antibody kept 4 days in monkey serum at 37 C, goat anti-human FAB-HRP, OD450.
Experiment [2] concerns the target T4, PD1-Fc-His (UniProt Q15116 25-167, limits assumed).
T4 construct: not shown: Fc; His tag
The experiment is described as follows: competition ELISA: antibody pre-incubated with PD1-Fc-His, plate coated with 'PD1-Fc' (competitor (so in the source)), anti-His-HRP; humanized-section antibody; ELISA competition, PD1-Fc-His in solution. The protocol:
(§2) Incubate the gradient diluted antibody and a certain concentration of PD1-Fc-His in advance, then add the mixture to the plate laid with PD1-Fc. Add anti-His-HRP to the plate after incubating and washing. Then perform coloration. Draw up the reaction curve by fitting of readings (see FIG. 7 for results) to calculate the IC50 value.

For experiment [3], the target named is T5, PD1-His (human, UniProt Q15116 25-167, limits assumed).
T5 construct: also called hPD-1; not shown: His tag
The experiment is described as follows: ELISA, PD1-His coated; ELISA, PD1-His on the plate. The protocol:
Lay PD1-His on the plate, add gradient diluted antibody, incubate and wash it, and then add goat anti-mouse-HRP, perform coloration, and draw up the reaction curve by fitting of readings (see FIG. 6 for results) to calculate the EC50 value.

The target of experiment [4] is T4, PD1-Fc-His. The experiment is described as follows: Inhibition ELISA: graded antibody pre-incubated with PD1-Fc-His, added to a plate laid with 'PD1-Fc' (so in the source), anti-His-HRP, OD450. The protocol: as §2
Experiment [5] addresses T6, PD-1 antigen of the Biacore experiment (not given) (UniProt Q15116 25-167, limits assumed).
T6 construct: Embodiment 5 describes capture by goat anti-human IgG on the chip but never names the analyte
The experiment is described as follows: SPR (Biacore), antibody captured by goat anti-human IgG on CM5 chip. The source says: Biacore is used to analyze the affinity and binding kinetics of the antibody expressed in cell line 4. Using standard amine coupling chemistry and the kit provided by Biacore, the goat anti-human IgG is covalently linked to CMS chip by primary amine. Make the antibody flow in the HBS EP buffer at a flow rate of […] and measure the binding. The binding time is 300 seconds, and the dissociation time is 7200 seconds.
Background: Surface plasmon resonance follows binding to a sensor surface in real time, without labels.

In experiment [6] the target is Recombinant human PD-1 fusion protein (human). The experiment is described as follows: ELISA: recombinant human PD-1 fusion protein coated at 0.5 ug/mL, antibody kept 0 days in monkey serum at 37 C, goat anti-human FAB-HRP, OD450.
The target is the same in experiment [7]. The experiment is described as follows: ELISA: recombinant human PD-1 fusion protein coated at 0.5 ug/mL, antibody kept 7 days in monkey serum at 37 C, goat anti-human FAB-HRP, OD450.
Experiment [8] addresses T7, PD1 on PD1-27 cells (PD1 over-expressed CHO-K1 stable transfected cells) (UniProt Q15116 25-288).
T7 construct: whole, on cells
The experiment is described as follows: direct cell binding on PD1-27 CHO-K1 cells, EU fluorescence (heading 'Cell binding activity'; value printed as 'cell inhibitory activity IC50'); direct cell binding on PD1-27 cells, no competitor. The source says:
(§3) Lay PD1-27 (PD1 over-expressed CHO-K1 stable transfected cells) on the cell plate for culture inspection one day ahead of schedule. After closure on the next day, add gradient-diluted antibody, then anti-mouse-EU after washing, then fluorescence enhancement solution after washing, and obtain the readings.

Experiment [9] concerns the target Recombinant human PD-1 fusion protein (human). The experiment is described as follows: ELISA: recombinant human PD-1 fusion protein coated at 0.5 ug/mL, antibody kept 1 day in monkey serum at 37 C, goat anti-human FAB-HRP, OD450.
For experiment [10], the target named is T7, PD1 on PD1-27 cells (PD1 over-expressed …). The experiment is described as follows: cell binding on PD1-27 CHO-K1 cells, anti-mouse-EU fluorescence.
Excerpt: as §3

The target is the same in experiment [11]. The experiment is described as follows: cell competition on PD1-27 CHO-K1 cells against 'PD1-Fc' (competitor (so in the source)), anti-Human-EU; mouse antibody; cell competition on PD1-27 CHO-K1 cells. The text has this: Lay PD1-27 (PD1 over-expressed CHO-K1 stable transfected cells) on the cell plate for culture inspection one day ahead of schedule. After closure on the next day, add gradient-diluted antibody and PD1-Fc, then anti-Human-EU after washing, and then fluorescence enhancement solution after washing.

The target in experiment [12] is T4, PD1-Fc-His. The experiment is described as follows: Inhibition ELISA: graded antibody pre-incubated with PD1-Fc-His, added to a plate coated with 'PD1-Fc' (so in the source), anti-His-HRP, OD450. The protocol: (§4) Incubate the gradient diluted antibody and a certain concentration of PD1-Fc-His in advance, then add the mixture to the plate enveloped with PD1-Fc. Add anti-His-HRP to the plate after incubating and washing. Then perform coloration. Draw up the reaction curve by fitting of readings (see FIG. 2 for results) to calculate the IC50 value.

Experiment [13] addresses T5, PD1-His. The experiment is described as follows: ELISA, PD1-His coated, goat anti-mouse-HRP. The protocol: Envelop PD1-His on the plate, add gradient diluted antibody, incubate and wash it, and then add goat anti-mouse-HRP, perform coloration, and draw up the reaction curve by fitting of readings (see FIG. 1 for results) to calculate the EC50 value.
The target of experiment [14] is T4, PD1-Fc-His. The experiment is described as follows: competition ELISA: antibody pre-incubated with PD1-Fc-His, plate coated with 'PD1-Fc' (competitor (so in the source)), anti-His-HRP; mouse antibody; ELISA competition, PD1-Fc-His in solution. The protocol:
as §4

T6 sequence (Q15116 25-167 limits assumed): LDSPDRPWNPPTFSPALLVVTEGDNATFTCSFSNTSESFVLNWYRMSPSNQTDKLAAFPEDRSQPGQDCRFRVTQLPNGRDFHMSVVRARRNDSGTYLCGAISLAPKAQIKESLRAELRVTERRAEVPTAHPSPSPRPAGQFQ
T4 sequence (Q15116 25-167 limits assumed): as above
T7 sequence (Q15116 25-288 limits assumed): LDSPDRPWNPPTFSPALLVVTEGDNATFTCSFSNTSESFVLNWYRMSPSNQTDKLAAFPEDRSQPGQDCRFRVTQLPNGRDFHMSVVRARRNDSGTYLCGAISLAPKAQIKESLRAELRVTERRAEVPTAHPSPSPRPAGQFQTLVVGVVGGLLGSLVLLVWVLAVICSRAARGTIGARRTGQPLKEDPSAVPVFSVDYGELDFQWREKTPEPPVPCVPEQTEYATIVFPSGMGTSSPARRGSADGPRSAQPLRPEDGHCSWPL
Sequence of Recombinant human PD-1 fusion protein (human) (Q15116 25-170): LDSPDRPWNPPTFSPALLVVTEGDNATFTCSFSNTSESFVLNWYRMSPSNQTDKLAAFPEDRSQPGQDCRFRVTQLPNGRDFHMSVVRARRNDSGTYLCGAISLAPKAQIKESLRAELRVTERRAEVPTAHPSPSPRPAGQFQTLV
T5 sequence (Q15116 25-167 limits assumed): as the sequence (Q15116 25-167 limits assumed) above
T3 sequence (P10747 19-152 limits assumed): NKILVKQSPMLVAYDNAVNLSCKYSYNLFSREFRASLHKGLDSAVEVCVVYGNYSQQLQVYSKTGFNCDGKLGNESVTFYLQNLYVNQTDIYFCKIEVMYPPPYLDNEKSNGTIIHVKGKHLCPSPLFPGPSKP

B1: humanized antibody anti-PD-1 (antibody, V domains shown)
VH: EVQLVESGGGLVKPGGSLRLSCAASGFTFSSYTMSWVRQAPGKGLEWVATISNGGSFTYYPDSMKGRFTISRDNSKNTLYLQMSSLRAEDTAVYYCARDSDYYGIFDYWGQGTTVTVSS
VL: DIVMTQSPLSLPVTPGEPASISCRSSKSLLYKDGKTYLNWYLQKPGQSPQLLIYLMSTRASGVPDRFSGSGSGTDFTLKISRVEAEDVGVYYCQQLVEDPFTFGQGTKLEIKR
notes: Human constant regions; also called humanized PD-1 antibody; hup01 (plasmids P3.1GS-hup01-HC / P3.1GS-hup01-LC)
In the case of B1, the binding result with recombinant human CTLA-4, in the experiment with mouse pd1 and in the experiment with recombinant human CD28 was “no binding (tested: 0.5 ug/mL)” throughout. Also, the EC50 (read off the curve) in [1], in [6], in experiment [7] and in experiment [9] was 0.04 µg/mL each time. Moreover, in the experiment with PD1-Fc-His [2], the IC50 (in general, the concentration at which inhibition is half-maximal) amounted to 406 nM. For the same molecule, the figures for the 50% effective concentration (EC50) (in the experiment with PD1-His [3]; in experiment [8]) were 0.00609 µg/mL and 0.103 µg/mL, respectively. Besides, the “IC50 (read off the curve)” value in the experiment with PD1-Fc-His [4] was about 0.4 µg/mL. Moreover, the affinity in experiment [5], expressed as Kd, was 0.422 nM. In addition, in experiment [5], the koff (usually the first-order rate constant of dissociation) is 1.93e-05 s⁻¹. In experiment [5], the association rate constant (kon) (in general, the second-order rate constant of association) was 45700 M⁻¹ s⁻¹.

B2: mouse anti-PD-1 (antibody, V domains shown)
VH: DVKLVESGGGLVKPGGSLKLSCAASGFTFSSYTMSWVRQTPEKRLEWVATISNGGSFTYYPDSMKGRFTISRDNAKNTLYLQMSSLKSEDTAMYYCTRDSDYYGIFDYWGQGTTLTVSS
VL: DIVITQDELSNPVTSGESVSISCRSSKSLLYKDGKTYLNWFLQRPGQSPQLLIYLMSTRASGVSDRFSGSGSGTDFTLEISRVKAEDVGVYYCQQLVEDPFTFGSGTKLEIKR
notes: also called mouse anti-PD-1 monoclonal antibody; mouse PD-1 antibody
As to B2, the 50% effective concentration (EC50) (commonly the concentration at which the effect is half-maximal) in [10] was 0.0878 µg/mL; with PD1-His [13], 0.0024 µg/mL. The IC50 in experiment [11] is 0.284 µg/mL; with PD1-Fc-His [14], 3.83 nM. Moreover, the “IC50 (read off the curve)” value with PD1-Fc-His [12] is about 0.004 µg/mL.
